Assays:
Conditions in all cases: both partners purified
BSA protein = BSA protein (Bos taurus (Bovine)., UniProt P02769); experiment: ELISA; Nbs tested on BSA protein (Figure S7); details not shown
[1] = biological target: T1, human glucose‐regulated protein 78 (hGRP78), full-length (Homo sapiens (Human)., UniProt P11021); experiment: SPR; Biacore T100; […] (10 µg mL^-1) […]; association 120 s, dissociation 300 s; […]
T1 construct: also called BiP; HSPA5

mouse GRP78 (mGRP78) = biological target: T2, mouse GRP78 (mGRP78) (Mus musculus (Mouse)., UniProt P20029); experiment: ELISA; hGRP78 or mGRP78 (10 µg mL^-1) immobilised on plates overnight at 4 °C; blocked with 3% BSA/PBS; serially diluted HA‐tagged Nbs 1 h at RT; HRP anti‐HA; OD450
T2 construct: also called murine GRP78
T2 sequence (P20029 20-655): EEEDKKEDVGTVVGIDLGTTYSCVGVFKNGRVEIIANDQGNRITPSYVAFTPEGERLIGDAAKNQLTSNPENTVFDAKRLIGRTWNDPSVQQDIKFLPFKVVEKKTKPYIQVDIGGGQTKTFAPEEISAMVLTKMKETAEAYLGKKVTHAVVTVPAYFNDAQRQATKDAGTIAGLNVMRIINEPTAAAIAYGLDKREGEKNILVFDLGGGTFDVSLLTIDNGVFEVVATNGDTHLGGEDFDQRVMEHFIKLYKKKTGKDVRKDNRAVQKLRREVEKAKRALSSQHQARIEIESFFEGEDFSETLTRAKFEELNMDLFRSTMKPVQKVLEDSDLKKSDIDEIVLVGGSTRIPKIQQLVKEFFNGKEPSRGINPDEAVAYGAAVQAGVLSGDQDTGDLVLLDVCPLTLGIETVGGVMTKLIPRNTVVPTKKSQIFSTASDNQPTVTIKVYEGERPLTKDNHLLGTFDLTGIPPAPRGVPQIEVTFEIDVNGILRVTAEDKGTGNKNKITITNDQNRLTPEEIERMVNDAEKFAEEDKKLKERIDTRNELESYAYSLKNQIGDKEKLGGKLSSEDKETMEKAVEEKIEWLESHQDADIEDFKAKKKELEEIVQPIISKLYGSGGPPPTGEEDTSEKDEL

T1 sequence (P11021 19-654): as the sequence (P20029 20-655) above, with F295Y, G620A, S631A counted along it
BSA protein, sequence (P02769 25-607): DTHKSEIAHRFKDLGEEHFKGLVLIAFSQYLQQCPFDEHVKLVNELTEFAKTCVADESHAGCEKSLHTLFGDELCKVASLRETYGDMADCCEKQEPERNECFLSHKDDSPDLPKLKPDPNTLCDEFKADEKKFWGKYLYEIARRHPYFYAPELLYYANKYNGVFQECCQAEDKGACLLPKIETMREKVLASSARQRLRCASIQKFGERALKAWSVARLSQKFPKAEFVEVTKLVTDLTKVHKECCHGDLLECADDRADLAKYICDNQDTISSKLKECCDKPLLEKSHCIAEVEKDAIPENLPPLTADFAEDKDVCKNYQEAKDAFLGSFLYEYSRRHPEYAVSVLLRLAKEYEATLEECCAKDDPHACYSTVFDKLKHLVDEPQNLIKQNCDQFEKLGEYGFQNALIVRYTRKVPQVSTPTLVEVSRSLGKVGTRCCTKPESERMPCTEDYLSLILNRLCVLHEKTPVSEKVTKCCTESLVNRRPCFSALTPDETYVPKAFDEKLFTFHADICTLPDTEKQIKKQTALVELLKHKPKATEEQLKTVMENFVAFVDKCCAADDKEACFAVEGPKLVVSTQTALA

B1: Nb NBD1 (VHH)
VHH: AVQLVESGGGSVQAGGSLTLSCAASINTGNPALVGWYRQAPGKQREMVAMISISGNTNYAPSVKGRFTISRDNANKTIFLQMNSLTPEDTAVYYCKKLPFGSWGQGTQVTVSS
notes: source: E. coli BL21 (DE3), purified (Ni‐NTA, AKTA Pure System)
- binding result (BSA protein): no binding
- Kd [1]: 3.4 nM
- binding result (mouse GRP78 (mGRP78)): binds

— PMC12097070 (Advanced Science, 2025)
